Assay results: patent US20070207463A1, “Method” (priority 2003, published 2007)

What was measured:
Type in all cases: biochemical, Pantoea dispersa SB1043
[1] = target: Pantoea dispersa AlbD (albicidin detoxifying enzyme, carboxyl esterase), wild type (Pantoea dispersa, UniProt O07822); assay: Enzyme kinetics of wild type AlbD with p-nitrophenyl compounds; conditions: PBS pH 7.4, room temperature, O.D405, means of triplicate
Procedure: (§1) Purification of AlbD and variants. The coding sequence of albD was amplified by PCR using forward primer 5′-[…]-3′ and reverse primer 5′-[…]-3′. The PCR product was digested by BamHI and EcoRI and fused in-frame to GST (glutathione S-transferase) gene in expression vector pGEX-2T (Pharmacia). E. coli DH5α containing the GST-AlbD fusion construct was grown in LB medium at 30° C. overnight. The cells were harvested by centrifuging at 5000 rpm for 10 minutes. The cells were resuspended in PBS buffer (pH7.4) and lysed by using a French Pressure Cell Press (Aim-Aminco) at 1100 psi. The lysate was centrifuged at 18000 rpm for 60 min at 4° C. The supernatant was loaded in the pre-equilibrated Gluthione Sepharose 4B affinity column and washed with PBS buffer (pH 7.4) to remove non-specifically bound proteins. […] The enzyme purity was determined using SDS-PAGE and stored at −80° C. in PBS buffer containing 50% glycerol. The AlbD variants were purified using the same method.
(§2) Kinetics analysis of wild type AlbD and its variants. Enzyme kinetics of AlbD and variants were determined using p-nitrophenyl compounds, the commonly used esterase substrates. The reaction was conducted in 165 μl PBS buffer (pH 7.4) containing enzyme (0.3-0.6 μM), and 3 mM p-nitrophenayl compounds at room temperature for 5 minutes and O.D405 was determined. For kinetics assay, we used the Kinetics program in the Athous spectrometer (Australia) to obtain slopes with different enzyme concentrations, and then calculated Km/Vmax and Kcat/Km by Lineweaver-Burk equation.

[2] = target: Pantoea dispersa AlbD variant AlbD-M1, Ser40Gly (A118G), FIG. 3 (Pantoea dispersa, UniProt O07822, S40G); assay: Enzyme kinetics of AlbD-M1 with p-nitrophenyl compounds; conditions: PBS pH 7.4, room temperature, O.D405, means of triplicate
Chain of Pantoea dispersa AlbD variant AlbD-M1, Ser40Gly (A118G), FIG. 3 (O07822 entry or part of it S40G): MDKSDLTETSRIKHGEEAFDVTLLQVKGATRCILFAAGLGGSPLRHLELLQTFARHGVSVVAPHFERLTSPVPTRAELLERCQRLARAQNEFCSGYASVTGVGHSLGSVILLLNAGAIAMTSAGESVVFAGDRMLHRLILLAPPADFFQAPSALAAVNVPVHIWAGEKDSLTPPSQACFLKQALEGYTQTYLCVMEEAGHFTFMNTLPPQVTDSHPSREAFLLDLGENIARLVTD
Procedure: as §1, §2

[3] = target: Pantoea dispersa AlbD variant AlbD-M2, Glu25Arg (A74G)/Lys27Glu (A79G)/Ser40Gly (A118G) (Pantoea dispersa, UniProt O07822, K27E/Q25R/S40G); assay: Enzyme kinetics of AlbD-M2 with p-nitrophenyl compounds; conditions: PBS pH 7.4, room temperature, O.D405, means of triplicate
Chain of Pantoea dispersa AlbD variant AlbD-M2, Glu25Arg (A74G)/Lys27Glu (A79G)/Ser40Gly (A118G) (O07822 entry or part of it Q25R/K27E/S40G): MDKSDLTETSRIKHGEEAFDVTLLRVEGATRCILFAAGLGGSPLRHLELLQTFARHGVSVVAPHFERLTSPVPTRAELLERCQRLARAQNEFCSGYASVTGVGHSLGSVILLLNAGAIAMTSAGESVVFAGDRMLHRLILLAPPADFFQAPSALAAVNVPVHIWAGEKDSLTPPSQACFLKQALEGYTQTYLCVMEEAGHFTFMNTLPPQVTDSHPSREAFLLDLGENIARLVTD
Procedure: as §1, §2

[4] = system: CC(=O)Oc1ccc([N+](=O)[O-])cc1; assay: Enzyme kinetics of wild type AlbD with p-nitrophenyl compounds; conditions: other: wild type AlbD, PBS pH 7.4, room temperature, O.D405, Lineweaver-Burk, means of triplicate
Procedure: as §1, §2

[5] = system: CCCCC(=O)Oc1ccc([N+](=O)[O-])cc1; assay: as above; conditions: other: wild type AlbD, PBS pH 7.4, room temperature, O.D405, Lineweaver-Burk, means of triplicate
Procedure: as §1, §2

[6] = system: CCCCCC(=O)Oc1ccc([N+](=O)[O-])cc1; assay: as above; conditions: other: wild type AlbD, PBS pH 7.4, room temperature, O.D405, Lineweaver-Burk, means of triplicate
Procedure: as §1, §2

[7] = system: CCCC(=O)Oc1ccc([N+](=O)[O-])cc1; assay: as above; conditions: other: wild type AlbD, PBS pH 7.4, room temperature, O.D405, Lineweaver-Burk, means of triplicate
Procedure: as §1, §2

[8] = system: CC(=O)Oc1ccc([N+](=O)[O-])cc1; assay: Enzyme kinetics of AlbD-M1 with p-nitrophenyl compounds; conditions: other: AlbD-M1, PBS pH 7.4, room temperature, O.D405, Lineweaver-Burk, means of triplicate
Procedure: as §1, §2

[9] = system: CCCCC(=O)Oc1ccc([N+](=O)[O-])cc1; assay: as above; conditions: other: AlbD-M1, PBS pH 7.4, room temperature, O.D405, Lineweaver-Burk, means of triplicate
Procedure: as §1, §2

[10] = system: CCCCCC(=O)Oc1ccc([N+](=O)[O-])cc1; assay: as above; conditions: other: AlbD-M1, PBS pH 7.4, room temperature, O.D405, Lineweaver-Burk, means of triplicate
Procedure: as §1, §2

[11] = system: CCCC(=O)Oc1ccc([N+](=O)[O-])cc1; assay: as above; conditions: other: AlbD-M1, PBS pH 7.4, room temperature, O.D405, Lineweaver-Burk, means of triplicate
Procedure: as §1, §2

[12] = system: CC(=O)Oc1ccc([N+](=O)[O-])cc1; assay: Enzyme kinetics of AlbD-M2 with p-nitrophenyl compounds; conditions: other: AlbD-M2, PBS pH 7.4, room temperature, O.D405, Lineweaver-Burk, means of triplicate
Procedure: as §1, §2

[13] = system: CCCCCC(=O)Oc1ccc([N+](=O)[O-])cc1; assay: as above; conditions: other: AlbD-M2, PBS pH 7.4, room temperature, O.D405, Lineweaver-Burk, means of triplicate
Procedure: as §1, §2

[14] = system: CCCC(=O)Oc1ccc([N+](=O)[O-])cc1; assay: as above; conditions: other: AlbD-M2, PBS pH 7.4, room temperature, O.D405, Lineweaver-Burk, means of triplicate
Procedure: as §1, §2

Chain of Pantoea dispersa AlbD (albicidin detoxifying enzyme, carboxyl esterase), wild type (O07822 entry or part of it): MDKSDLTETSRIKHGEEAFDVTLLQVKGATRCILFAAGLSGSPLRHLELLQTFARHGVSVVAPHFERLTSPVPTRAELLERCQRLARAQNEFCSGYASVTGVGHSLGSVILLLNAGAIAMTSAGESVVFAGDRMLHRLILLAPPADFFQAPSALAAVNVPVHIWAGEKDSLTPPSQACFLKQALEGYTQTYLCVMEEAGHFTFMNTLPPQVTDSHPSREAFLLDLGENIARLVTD

In the case of CC(=O)Oc1ccc([N+](=O)[O-])cc1 [p-nitrophenol acetate, p-nitrophenyl acetate], the Kcat [1] is reported as 3.8 × 10^−3 S^−1, the Kcat [2] is reported as 9.1 × 10^−2 S^−1 and the Kcat [3] is reported as 1.5 × 10^−2 S^−1.
CCC(=O)Oc1ccc([N+](=O)[O-])cc1 [p-nitrophenol propionate, p-nitrophenyl propionate] was tested, and the Kcat [1] was 8.3 × 10^−2 S^−1, the Kcat [2] was 2.7 × 10^−1 S^−1 and the Kcat [3] was 1.0 × 10^−1 S^−1.
With CCCC(=O)Oc1ccc([N+](=O)[O-])cc1 [p-nitrophenyl butyrate] the Kcat [2] was 2.5 × 10^−1 S^−1 and the Kcat [3] was 2.8 × 10^−2 S^−1.
In the case of CCCCCC(=O)Oc1ccc([N+](=O)[O-])cc1 [p-nitrophenyl caproate], the Kcat [2] is reported as 4.2 × 10^−1 S^−1 and the Kcat [3] is reported as 1.3 × 10^−1 S^−1.
For CCCCC(=O)Oc1ccc([N+](=O)[O-])cc1 [p-nitrophenyl velerate, p-nitrophenyl valerate], the Kcat [2] was 8.8 × 10^−1 S^−1.
Work on “Pantoea dispersa AlbD (albicidin detoxifying enzyme, carboxyl esterase), wild type (Pantoea dispersa)” yielded a Km [4] of 68000 µM, a Km [5] of 1700 µM and a kcat [5] of 0.28 s⁻¹. For the same compound, the kcat/Km [5] was 165 M⁻¹ s⁻¹, the Km [6] was 2500 µM and the kcat [6] was 0.11 s⁻¹. The kcat/Km [6] was 55.6 M⁻¹ s⁻¹, the Km [7] was 190 µM and the kcat [7] was 0.1 s⁻¹. For the same compound, the kcat/Km [7] was 526 M⁻¹ s⁻¹.
“Pantoea dispersa AlbD variant AlbD-M1, Ser40Gly (A118G), FIG. 3 (Pantoea dispersa; S40G)” was tested, and the Km [8] was 94000 µM, the Km [9] was 400 µM and the Km [10] was 250 µM. The Km [11] was 11 µM.
“Pantoea dispersa AlbD variant AlbD-M2, Glu25Arg (A74G)/Lys27Glu (A79G)/Ser40Gly (A118G) (Pantoea dispersa; K27E/Q25R/S40G)” was tested, and the Km [12] was 13000 µM, the Km [13] was 66000 µM and the Km [14] was 23 µM.
